Results published in a protein production outcome set (Wang et al. 2014).

Experiment: label from the status in PepcDB records
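Further: failed if final PepcDB status was selected cloned or expressed and not failed if soluble or beyond.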

Sequence	protein production
MTLSKQLKTYITERFKLNYQDTWSCETVDAVAEDVLPEKYIKNSPLEHKILNTFTYYNDELHEISIYPFLCYLDKELIAIGYLDNFDLDFIFLNDTHQIIIDERYLLQKGGELEHHHHHH	failed
DKITFKGDGDQSDPDGEPGDVVIVIQQKDHDIFKRDGDDLHMTKKLSLNEALCGYNFLIKHLDGHPLVLSSKQGDVIKPGVIRGVLGKGMPNKKYPELKGNLFVEFEVEFPKEHFLDDEKAYAVLK	not failed
MDTRFCSSLLIKNLNTFPASNKEIMNVTVSEAERNAGDERPDLQACAEAYAIVNSAFTKAVTFFKQAYYSKIVNIEKKVSMAVDICKTDFNVLGYQINPLIEKNRQTKILLSMEQIVSHMVSS	failed
MSRVKILDEETISHIAAGEVVERAASVVKELVENAVDADAQIIRIGISADKTGITKISVTDDGIGMDFDDALLAFRQHATSKISRPEDLDGITTLGFRGEALASIAAISKVTFTTKERGSPSPEAARVVIHGGELISHSAVGAPEGTSVLIDALFYNTPARRKFQKSVPTELSHVYDMVERIALSNRNISFVLLYNGKERFQTFGTGSYPDVIAAVFGSTFSKELTPVSGSFGPVKIDGWITRPGSEMKTTQTRFYLSINGRQVTSRQLQWAIREGYGTLLPKGMYPAAFLDIVLDPRDVDVNVHPTKREVRLSREREVMRCVQDAVYTSLHEERVFSTAPMPTLARETITTLPVEIVGEPVPVYAGKQEMHEARQAPLKQTEKQLRRTESADLPETDLFVPEVLGQIGDTYILAKNESGDLIVVDQHAAHERIMYDQLLARSSSAEAGQELIVPQPITLSKKETAALPDLLDVLAAAGYLLEPFGKDVWMVRSVPVVSSTLGDPDTIHAILDAALDGVGNTDEVLDRVLKTAACRAVVKGNTPLTIEQMQRLLRQLMATKSPYTCPHGRPTTIVLSKSRLAGMFLRT	failed
MKSWQIELLYDGECPLCLREVNFLRSKDQGRGLVNFVDIAQPDYNPLDHGGVSFEDAMARIHGVKADGSVVKNVAVFREVYEILGIGWLYAPTRWPIIGPLVDRIYDFWADLRLSWTGRSSLAEILAQREKGMCATDGCALPVTSGVEGKP	failed
MRKAWVKTLALDRVSNTPVVILGIEGTNRVLPIWIGACEGHALALAMEKMEFPRPLTHDLLLSVLESLEARVDKVIIHSLKDNTFYATLVIRDLTYTDEEDEEAALIDIDSRPSDAIILAVKTGAPIFVSDNLVEKHSIELEVNETQDEEEEFKKFVENLNIDTFKQMIEKKREEDEEGES	not failed
MKLIRVTLFLCALAILLLVTPTSSLQLKHPYSSPSQGLSKKIVTKMATRKLMIISSEYVMTSTSHEGSSEQLRVTSSGKSKDEEKKLSEEEEEKKALAKYLSMDYRTFRRRRPVHNKALPLDP	failed
MSLKYIIGMDVGTTATKGVLYDINGKAVASVSKGYPLIQTKVGQAEEDPKLIFDAVQEIIFDLTQKIDGKIAAISWSSQMHSLIGLGSDDELLTNSITWADNCAKSIVQDAKNRGFAQQIYRKTGMPMHPMAPIYKLLWLKNKKTEVFSQAQKWIGIKEYIIFRLTGKLVTDTTMAAGTGILNLKTLTWDQELLDILKIKKEQLPKIAQPTKVIFPIKTEYVKKLGIDSDTKIILGASDGYLSTIGVNAIDSDHCALNVGTSGAIRTIVDQPKIDPSASYFCYPADKTHYLLGGPVNNGGIVFNWARQTLFDADETPQDFLDVAQTAPAGSRNLIFLPYLGGERAPIWDANARGSFVGLTRMHQKPEMARAVIEGIIFNLYDAASNLIKNTKKPVAINATGGFLKSDFVRQLCANIFNVPIVTMKEQQSGTLAAMFLARQALGLNQDLSEIGQFAQADKVYFPNPKEAATYQKLFPLYCEIRNALAASYGKFSNINEGHHHHHH	not failed
MKTSIIILTCNNLRYSRRCIESIKKYTEKEAYEIIVVDNNSNDGTRNWLSKQKAIKKIYNNVNVGFPRGCNMGIKVACGSEVLLLNNDVVVTHNWLNNLRNCLYSSYEIGAVGPISNNCSNGQKINVRYDSIEDMHRFSKKYNISNKKKWTEVKRLIGFCFLIKRNVIRKVGLFDERFTPGNFEDDDYCIRMRKIGFRLMLCKDTFVHHYGSVSFKNTQYLKLLEVNKSKLEKKWGKSYDKLVLEHHHHHH	failed
MHVSKVFPSLRDTLPRDLMASVVVFLVALPLCMGIAIASGMPPAKGLLTGIVGGLVVGFLAGSPLQVSGPAAGLAVLVFELVRTYGVAMLGPILLLAGAIQLLAGRLRLGCWFRVTSPAVVYGMLAGIGILIVLSQLHVMLDLAPKASGLDNLLAFPQAAFAALGSLGMDSGLDAALLGLGTIAVMWGWDKLRPQRLRFLPGALLGVSLATLASLWLALDVRRVEVPANLGEAIVWLRPADLLALADPSLLLAAVVVAFIASAETLLSAAAVDRLHDGPRSDMDRELSAQGVGNMLCGLLGALPMTGVIVRSSANVNAGARTRASAIFHGLWLLAFVLLLGSLLRQIPVASLAGVLVYTGVKLVDFKALGNLSRYGRMPMLVYAATALAIVFTDLLTGVLVGFALTLLKLVLKAARLKIALRYTGEHEAELRLSGAATFLKVPALSRVLDEVKPGTTLHVPMDNLSYVDHACMELLEDWGRMAPVQGSRLVIEPRALKRRLEGRLRGSVGLGGARNGGAVSPG	failed
MNIAPVVDSLSAPAMLEELKQSPPWLRLSLLFPLFFLNGWLIYKAMGFLQPLSSLLVAAALLAFLLDIPVRILVEKGLKRPWAVASVLLIALVVISLFLLIVIPLAIDQLGQLLDNLPGWFRSGNAQLLMLQAWVNEHYANLQVDLQPLISQAIEKLSRILNSFGNQLLGLVGVTISTSINGLILLVLTIFLVLGGEKIWDGIFSWFPHPWQRDLQNLIRDTFEGYFATQAILAGILSVAQMVVFTLLQAPYAILFAITIGLSTLIPFASALSIIVISLLLMLENFWLGVKILLAAVIVGQINDNVISPRLMGNRTGLNPAWIIVSLFVGSKLGGVLGLLVAVPLASVIKATSDRLRGLPKKSGEQPAEVSVVST	failed
PELKCPVIGCDGQGHISGKYTSHRTASGCPLAAKRQKENPLNGASLSWKLNKQELPHCPLPGCNGLGHVNNVFVTHRSLSGCPLNAQVIKKGKVS	not failed
MLLGSCWRIARGVETVPYPWPKWLPIPVLATTVGVAAVVIGVRQLGLLQPSELSLYDFYVRSQPPRDPDSRILTVLVTEQDIQAQKTWPLPDATVAELLTRLNAASPRAIGLDIFRDLPQPPGHDELQNMIRINPRIIPVCKSPGETVEQPEVPPPPSIPTAQVPERVGFADIPLDSDGVIRRNLFVINNPKAQRCTTPFSFALMLALRYLEQDPSQTIKLDDKGLTLNDVHFPLLTSDAGGYVAVDDRGMQTLLKYRSRTAVGPTVSLTDVLTGRVSEDLIRDRVVLIGVSAPSIKDTFLTPYSGSDAVTQQMPGVVVHGQMVSQFLSAALEGEGPIWYWPVPLVLGWILLWAGVGSILGWWLRQPLWLGGAVVGGIIVLFGGGFGIFVMASGWIPVVPPAIALVLSSVGMVGYVSYQAQQEQKSFREKVQEQEKALALLRSLMAEDTAALNAALREPTEITGKPRSLLSGRYKIQKVLGSGGFGRTYLAQDTQRPGNPLCVVKHLRPGRTDERFMQVARRLFNTEAEILEKLGRHDQIPLLLAYVEENREFYLVQEFIDGVSLSEELKRKHTEAEAIQLLREILEVLNFVHSHYVIHRDIKPDNIIRRASDRKLVLIDFGAVKQIQPQEAERTQGSTVVIGTMGYAPPEQLSGQPTLSSDIYAVGMIVLQALTGIKPRDLPRDPRTGEVDWQQCVTVSEGLAVVLNKMVKFNFSDRYPSAKEALQDARRLGTPAASVS	failed
MVNQPLVSIIIPAYRAENTIAFTVRSVLAQTYDHWQVAIGVDDQVDYLQLLAEQGINDPRLKQVFTGGIGSGEAIARNKAVSICDGDILANLDADDAFASDRLEKLVPLAEKYGVAIDNTGVYNSELVLYKQPFPQRQALNFATAADILSPRIPFFPVFQRQLLGDGWTKVPFAADVLFNLELLSRTEKVAIHPEPLYRYYKRDNSITQSANAFETAEKAYLTILSLLDEGALTLTDAIRQAARQEFSENLALNKVFRRYMEEGRCQNLEQFLDMTNNGQKIEFVSNLNLEHHHHHH	not failed
MQQKDAVPDTAKKLKAPLTGLKTEQKVTERRPVAVVVNNHPKARPQSGLSKADIVIEALAEGQITRFLAIFQSQMPETVGPVRSAREYFVTLSNGFDSIFVHHGWSPGAKKQLESGAADYMNGLDFDGSLFWRADFSKPPHNSYTSYDYIKKAAEQKGYKLKQETNPLLFQTSDAKPANESYNVRVDYGTNNVTNLVEYNYDKKAEFYTRSSDGVITTDRETGKPVAMQNIFIVEASHHIIDQDGRRDIDLESGGKGLLFQHGNVIETDWKQVNGRIVPVKDGKWLPFVPGKTWINIVPDLDAASISKGEGVLEHHHHHH	not failed
MGHHHHHHSHMTDCEFGYIYRLAQDYLQCVLQIPQPGSGPSKTSRVLQNVAFSVQKEVEKNLKSCLDNVNVVSVDTARTLFNQVMEKEFEDGIINWGRIVTIFAFEGILIKKLLRQQIAPDVDTYKEISYFVAEFIMNNTGEWIRQNGGWENGFVKKFEPK	not failed
MSDLVRVERKGRVTTVILNRPASRNAVNGPTAAALCAAFEQFDRDDAASVAVLWGAGGTFCAGADLKAFGTPEANSVHRTGPGPMGPSRMMLSKPVIAAVSGYAVAGGLELALWCDLRVAEEDAVFGVFCRRWGVPLIDGGTVRLPRLIGHSRAMDMILTGRGVPADEALAMGLANRVVPKGQARQAAEELAAQLAALPQQCLRSDRLSALHQWGLPESAALDLEFASIARVAGEALEGARRFAAGAGRHGAPAPRAEQGDTL	not failed
MTVVVEFLGTGGAHSEDLGSSSARISLPNSQNMLIDFGPDTYFSVNTRKLQFDAIFITHAHLDHVGGLERLFFSVAFKKQRLIKLYVPVSLVTRLHQIFGMAGSQVAEGGKNFWDCFQLIPITDYFYFSGYRFNVFPVRHHFPGEAFGLALPGCFVYTGDTRPIPEQLVAHAGRGELIFHDATTSSNPAHSALDDLKREYALHDVLDRLVLYHFDSAVERELAETQGWKTVRLGVTYQFGCRHVCSGSMCSNAELSSLGTNKALHNERGTKLPRPSIKKDEFV	failed
QRRLSIFVDGNNMFYAQQKNNWFFDPRRVLDYFTCDPTVRLINAFWYTGLKDSQDQRGFRDALISLGYTVRTKILKEYYDDVSGRYSQKANLDIEIVVDMFNTVDQYDQVILFSGDGDFERAIELLRSKNTHITVVSTEGMIARELRNATDCYIDLNNLRAEIEKT	failed
MNSILPSVSTLAVGARPARPNVSVVMVVYRTGEALVESIRHVLAEPLVDEFIIVDNGSSSRDEDMLRSLALTEPRVVLKQGHGNVGFARGANLGAVTAGGEYIVFLNPDANLQPSCVASLVTAFKGQPVPTIVGARVLNTDGSEQRGGRRGDVTPISTVLSFGQLTRRYPKLAGFEIHRENEPLPGAPVPMPTISGACFAMRRADFVALNGFDEGYFLHVEDIDLCWRARRAGGQVLFQPNAEVVHLGHTSLEHPVKVEFHKGVGLTRYFIKRADSLQLFAAAVLLAPAIMLMSVCRPLLWKLTGRPI	failed
MKKIAFGCDHVGFILKHEIVAHLVERGVEVIDKGTWSSERTDYPHYASQVALAVAGGEVDGGILICGTGVGISIAANKFAGIRAVVCSEPYSAQLSRQHNDTNVLAFGSRVVGLELAKMIVDAWLGAQYEGGRHQQRVEAITAIEQRRN	not failed
SLDPVSQSKLEQAIHDQIPQLAKTAGKDLEAAAIAVDRHSGEIRAMVGGKRTGYDGFNRVLNASRQIGSLVKPAVYLTALAHPDQYNLATTLEDKPLTLKGSEGSAWTPRNYDRQYRGEVPLYLALAQSLNVPTVALGMKLGIDQVSATLGKLGVNRDEIRPVPSMLLGSFSLTPYQVAQMYQTLTNSGKKAPLSALRSVLDLEGNVLYESLPRVSQAVDQQAAWLTTYAMKQGVQEGTGRYLNAQFSSAALAGKTGTTNDNRDSWFVGVDGREVTTIWLGRDDNQPTKLTGASGALRVYAQYLKYRIPEKLQLPW	failed
